Target: Cdc13 amino-terminus through the DBD (N) (S. cerevisiae)
Assay: fluorescence polarisation

Kd: 35 nM
Substance: Hsp82 (yeast Hsp90 molecular chaperone) (from UniProt P02829 1-709) (natural protein)

— publication PMC2744139
